Results: IntAct's records for PubMed 14519764

B1: Metabotropic glutamate receptor 1 (Rattus norvegicus (Rat)), P23385 (parent)
chain: MVRLLLIFFPMIFLEMSILPRMPDRKVLLAGASSQRSVARMDGDVIIGALFSVHHQPPAEKVPERKCGEIREQYGIQRVEAMFHTLDKINADPVLLPNITLGSEIRDSCWHSSVALEQSIEFIRDSLISIRDEKDGLNRCLPDGQTLPPGRTKKPIAGVIGPGSSSVAIQVQNLLQLFDIPQIAYSATSIDLSDKTLYKYFLRVVPSDTLQARAMLDIVKRYNWTYVSAVHTEGNYGESGMDAFKELAAQEGLCIAHSDKIYSNAGEKSFDRLLRKLRERLPKARVVVCFCEGMTVRGLLSAMRRLGVVGEFSLIGSDGWADRDEVIEGYEVEANGGITIKLQSPEVRSFDDYFLKLRLDTNTRNPWFPEFWQHRFQCRLPGHLLENPNFKKVCTGNESLEENYVQDSKMGFVINAIYAMAHGLQNMHHALCPGHVGLCDAMKPIDGRKLLDFLIKSSFVGVSGEEVWFDEKGDAPGRYDIMNLQYTEANRYDYVHVGTWHEGVLNIDDYKIQMNKSGMVRSVCSEPCLKGQIKVIRKGEVSCCWICTACKENEFVQDEFTCRACDLGWWPNAELTGCEPIPVRYLEWSDIESIIAIAFSCLGILVTLFVTLIFVLYRDTPVVKSSSRELCYIILAGIFLGYVCPFTLIAKPTTTSCYLQRLLVGLSSAMCYSALVTKTNRIARILAGSKKKICTRKPRFMSAWAQVIIASILISVQLTLVVTLIIMEPPMPILSYPSIKEVYLICNTSNLGVVAPVGYNGLLIMSCTYYAFKTRNVPANFNEAKYIAFTMYTTCIIWLAFVPIYFGSNYKIITTCFAVSLSVTVALGCMFTPKMYIIIAKPERNVRSAFTTSDVVRMHVGDGKLPCRSNTFLNIFRRKKPGAGNANSNGKSVSWSEPGGRQAPKGQHVWQRLSVHVKTNETACNQTAVIKPLTKSYQGSGKSLTFSDASTKTLYNVEEEDNTPSAHFSPPSSPSMVVHRRGPPVATTPPLPPHLTAEETPLFLADSVIPKGLPPPLPQQQPQQPPPQQPPQQPKSLMDQLQGVVTNFGSGIPDFHAVLAGPGTPGNSLRSLYPPPPPPQHLQMLPLHLSTFQEESISPPGEDIDDDSERFKLLQEFVYEREGNTEEDELEEEEDLPTASKLTPEDSPALTPPSPFRDSVASGSSVPSSPVSESVLCTPPNVTYASVILRDYKQSSSTL

Variants of: B1
Settings: with pp1g_rat Ppp1cc

Row | effect of a mutation on the interaction | Variant
1 | decreasing interaction | S892A
